This note sets out measurements from doi:10.64898/2025.12.30.697126 (bioRxiv, 2025).

For this test, the target named is single-chain H2B-H2A.Z (human). Kind of test: crystal structure.

B1: Peptide SRCAP_(531-560) (peptide)
peptide: SEDAQSQSQADEEEEDDDFGVEYLLARDEE
B1: the binding result was “binds”.
